Absorbance (ELISA) (absorbance data for one substance are collected here from patent publication US6365158.

Assay [1] deals with Crotalus durissus terrificus (C.d.t.) venom. In words: ELISA, C.d.t. venom-coated wells, 1:5. Background: In an ELISA, binding on a coated surface is turned into a signal by an enzyme label.
For assay [2] the target is unchanged. Description: ELISA, C.d.t. venom-coated wells, 1:25.
For assay [3] the target is unchanged. In words: ELISA, C.d.t. venom-coated wells, 1:125.
Assay [4] has the same target. Description: ELISA, C.d.t. venom-coated wells, 1:625.
Assay [5] shares this target. Description: ELISA, C.d.t. venom-coated wells, 1:3125.
For assay [6] the target is unchanged. Description: ELISA, C.d.t. venom-coated wells, IgY 1:62,500.
For assay [7] the target is unchanged. In words: ELISA, C.d.t. venom-coated wells, IgY 1:312,500.
The target is the same in assay [8]. In words: ELISA, wells coated with 5 µg/ml C.d.t. venom, 1:5.
Assay [9] shares this target. Description: ELISA, wells coated with 5 µg/ml C.d.t. venom, 1:25.
Assay [10] shares this target. In words: ELISA, wells coated with 5 µg/ml C.d.t. venom, 1:125.
For assay [11] the target is unchanged. In words: ELISA, wells coated with 5 µg/ml C.d.t. venom, 1:625.
Assay [12] has the same target. Description: ELISA, wells coated with 5 µg/ml C.d.t. venom, 1:3125.
Assay [13] shares this target. In words: ELISA, wells coated with 5 µg/ml C.d.t. venom, undiluted.

Take preimmune IgY (antibody): the absorbance (ELISA) (absorbance at 412 nm) in [1] was less than 0; in assay [2] it was 0.016; in [3] it was less than 0; in assay [4], less than 0; in [5] it was less than 0; in [6], 0.001. In addition, the absorbance (ELISA) (absorbance at 412 nm) in assay [7] was 0.01; in assay [8], less than 0; in assay [9] it was 0; in [10], 0.003; in assay [11], 0; in assay [12] it was 0.002. This substance also returned an absorbance (ELISA) (absorbance at 412 nm) in assay [13] of 0.003.
